Results taken from patent publication US20210017532A1 (INSTITUTE OF GENETICS AND DEVELOPMENTAL BIOLOGY CHINESE …, published 2021).
Where two headings read alike, the source gives them in different places.

Assays:
His-UBQ10 [1] = system: His-UBQ10
Flag-OsSPL14, Q7EXZ2 = molecular target: T1, Flag-OsSPL14, Q7EXZ2
T1 chain: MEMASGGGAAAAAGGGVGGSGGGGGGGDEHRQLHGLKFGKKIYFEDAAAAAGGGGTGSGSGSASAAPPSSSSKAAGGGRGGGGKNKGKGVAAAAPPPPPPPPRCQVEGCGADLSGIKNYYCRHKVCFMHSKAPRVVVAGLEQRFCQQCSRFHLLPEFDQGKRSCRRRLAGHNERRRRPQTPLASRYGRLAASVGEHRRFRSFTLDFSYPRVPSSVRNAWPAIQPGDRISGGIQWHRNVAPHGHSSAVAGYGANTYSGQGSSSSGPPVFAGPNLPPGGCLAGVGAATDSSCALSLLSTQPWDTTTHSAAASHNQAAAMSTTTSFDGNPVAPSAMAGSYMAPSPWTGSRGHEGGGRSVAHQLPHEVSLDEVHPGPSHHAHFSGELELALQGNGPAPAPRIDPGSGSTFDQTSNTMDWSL

[2] = molecular target: T2, N-terminus of YFP-tagged deleted version of OsSPL14 (rice, UniProt Q7EXZ2 1-417); assay: BiFC in rice protoplasts with deleted versions of OsSPL14
T2 construct: not shown: N-terminal fragment of YFP
T2 sequence (looked up): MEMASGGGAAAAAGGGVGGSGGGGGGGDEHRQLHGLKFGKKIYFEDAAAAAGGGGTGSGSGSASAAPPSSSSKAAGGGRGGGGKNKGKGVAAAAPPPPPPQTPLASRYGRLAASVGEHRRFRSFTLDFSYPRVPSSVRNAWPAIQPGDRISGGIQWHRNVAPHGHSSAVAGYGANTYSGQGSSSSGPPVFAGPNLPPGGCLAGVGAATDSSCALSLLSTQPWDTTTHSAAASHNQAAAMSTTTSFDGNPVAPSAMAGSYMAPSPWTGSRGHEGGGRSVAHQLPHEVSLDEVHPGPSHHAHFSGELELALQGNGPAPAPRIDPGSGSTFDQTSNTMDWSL
Excerpt: (a) BiFC assays. The N-terminus of YFP-tagged OsSPL14, SBP-domain or a deleted version of OsSPL14 was co-transformed into rice protoplasts along with the C-terminus of YFP-tagged OsOTUB1.1. Panels (from left to right): DAPI staining, YFP signal, differential interference contrast, merged channel. Scale bar: 10 μm. (b) Co-immunoprecipitation of OsOTUB1.1-GFP and OsSPL14. IB, Immunoblot; IP, immunoprecipitation. (c) Plant morphology. Scale bar: 20 cm. (d) Panicle morphology. Scale bar: 5 cm. (e) OsSPL14 transcript abundance. Transcription relative to the level of the ZH11 plants set to be one. Data shown as mean±s.e.m. (n=3). (f) The number of tillers per plant. (g) The number of grains per panicle. (h) Culm diameter. All phenotypic data were measured from the field-grown plants under normal cultivation conditions. Data in f-h shown as mean±s.e.m. (n=120). The presence of the same lowercase letter denotes a non-significant difference between means (P<0.05).

[3] = molecular target: T3, YFP-fragment-tagged OsUBC13 (BiFC construct) (rice); assay: BiFC in rice protoplasts
T3 construct: BiFC in rice protoplasts; not shown: YFP fragment from pSY-735-35S-cYFP-HA or pSY-736-35S-nYFP-EE
T3 chain: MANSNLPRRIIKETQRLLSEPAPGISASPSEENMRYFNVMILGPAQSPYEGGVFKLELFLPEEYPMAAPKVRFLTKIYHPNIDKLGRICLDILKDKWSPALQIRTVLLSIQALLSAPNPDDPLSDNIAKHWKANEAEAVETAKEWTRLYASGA

OsSPL14 = molecular target: T4, OsSPL14 (rice, UniProt Q7EXZ2 1-417); assay: summary sentence of Example 1
T4 construct: also called SBP-domain transcription factor OsSPL14
T4 sequence (looked up): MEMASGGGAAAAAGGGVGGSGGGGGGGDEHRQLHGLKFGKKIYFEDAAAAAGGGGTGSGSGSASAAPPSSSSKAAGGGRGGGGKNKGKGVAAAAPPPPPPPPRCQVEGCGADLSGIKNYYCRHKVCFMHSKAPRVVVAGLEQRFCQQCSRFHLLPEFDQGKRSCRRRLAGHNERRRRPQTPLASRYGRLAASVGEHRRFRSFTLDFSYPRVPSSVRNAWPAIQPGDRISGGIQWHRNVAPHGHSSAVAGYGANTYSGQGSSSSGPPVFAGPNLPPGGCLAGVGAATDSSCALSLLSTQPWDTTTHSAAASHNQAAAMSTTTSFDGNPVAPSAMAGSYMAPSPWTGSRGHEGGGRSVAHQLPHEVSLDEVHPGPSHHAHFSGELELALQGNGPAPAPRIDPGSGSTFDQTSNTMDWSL

OsUBC13 = molecular target: T5, OsUBC13 (rice); assay: summary sentence of Example 1
T5 construct: Used for sentences that name OsUBC13 in general or cover several assay formats; also called E2 ubiquitin-conjugating protein
T5 chain: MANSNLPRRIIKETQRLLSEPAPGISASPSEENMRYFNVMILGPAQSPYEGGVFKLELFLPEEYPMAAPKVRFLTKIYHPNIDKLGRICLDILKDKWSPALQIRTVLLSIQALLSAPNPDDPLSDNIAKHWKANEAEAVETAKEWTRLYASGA

[4] = molecular target: T6, full length OsUBC13 in pGADT7 (rice); assay: yeast two-hybrid (pGBKT7 / pGADT7, strain AH109)
T6 construct: Yeast two-hybrid prey; not shown: fusion partner encoded by vector pGADT7
T6 chain: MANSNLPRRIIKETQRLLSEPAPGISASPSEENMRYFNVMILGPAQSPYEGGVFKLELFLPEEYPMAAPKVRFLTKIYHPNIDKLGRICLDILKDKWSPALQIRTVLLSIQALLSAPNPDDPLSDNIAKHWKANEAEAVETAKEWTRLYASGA
Protocol: Yeast two-hybrid assays. Yeast two-hybrid assays were performed as described elsewhere^{14, 21}. The full length OsOTUB1.1 cDNA and an OsOTUB1 C-terminal fragment were amplified from ZH11 cDNA and inserted into pGBKT7 (Takara Bio Inc.), while the full length OsUBC13 cDNA and an OsSPL14 C-terminal fragment were inserted into pGADT7 (Takara Bio Inc.). Each of these plasmids was validated by sequencing before being transformed into yeast strain AH109. The required β-galactosidase assays were performed according to the manufacturer's (Takara Bio Inc.) protocol. Cells harboring either an empty pGBKT7 or an empty pGADT7 were used as the negative control. The entire OsOTUB1 sequence or a C-terminal fragment were used as the bait to screen a cDNA library prepared from poly(A)-containing RNA isolated from rice young panicles (<0.2 cm in length). The experimental procedures for screening and plasmid isolation followed the manufacturer's (Takara Bio Inc.) protocol.

[5] = molecular target: linear K48-linked tetra-ubiquitin (Boston Biochem)
[6] = molecular target: linear K63-linked tetra-ubiquitin (Boston Biochem)
His-UBQ10 [7] = molecular target: His-UBQ10; remark: listed apart in the source
[8] = molecular target: T7, recombinant GST-OsSPL14 fusion protein, Q7EXZ2
T7 chain: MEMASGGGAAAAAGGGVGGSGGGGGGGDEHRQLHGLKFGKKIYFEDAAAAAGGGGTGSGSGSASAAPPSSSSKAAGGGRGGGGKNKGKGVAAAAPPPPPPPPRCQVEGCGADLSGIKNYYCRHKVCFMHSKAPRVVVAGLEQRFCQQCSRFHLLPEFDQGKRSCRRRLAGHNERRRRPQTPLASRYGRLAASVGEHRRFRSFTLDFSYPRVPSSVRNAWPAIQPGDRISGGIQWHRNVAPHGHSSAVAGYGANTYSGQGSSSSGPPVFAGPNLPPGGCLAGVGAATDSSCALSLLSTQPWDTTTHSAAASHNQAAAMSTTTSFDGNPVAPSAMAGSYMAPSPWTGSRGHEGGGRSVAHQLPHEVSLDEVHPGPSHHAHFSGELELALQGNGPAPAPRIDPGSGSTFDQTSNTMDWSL

Q: Which “in vitro deubiquitination assay (cleavage of His-UBQ10, SDS-PAGE and anti-His blot)” value (His-UBQ10 [1]) does the source give for MBP-WTG1^D68E;C71S;H267R here?
A: The value was “MBP-WTG1^wtg1-1, MBP-WTG1^D68E;C71S;H267R and MBP did not cleave His-UBQ10”.

B1: Myc-OsOTUB1.1 (protein)
chain: MGGDYYHSCCGDPDPDLRAPEGPKLPYVGDKEPLSTLAAEFQSGSPILQEKIKLLGEQYDALRRTRGDGNCFYRSFMFSYLEHILETQDKAEVERILKKIEQCKKTLADLGYIEFTFEDFFSIFIDQLESVLQGHESSIGAEELLERTRDQMVSDYVVMFFRFVTSGEIQRRAEFFEPFISGLTNSTVVQFCKASVEPMGEESDHVHIIALSDALGVPIRVMYLDRSSCDAGNISVNHHDFSPEANSSDGAAAAEKPYITLLYRPGHYDILYPK
Q: For B1, which “accumulation of Flag-OsSPL14 in rice protoplasts (immunoblot)” value (Flag-OsSPL14, Q7EXZ2) is on record?
A: Its value is “Myc-OsOTUB1 promoted the degradation of Flag-OsSPL14 only in the presence of either WT-, K63O- or K48R-linked ubiquitins”.

Q: What about the “ubiquitination of Flag-OsSPL14 in rice protoplasts (anti-Flag IP, anti-HA blot)” value (Flag-OsSPL14, Q7EXZ2) of the same molecule?
A: The value was “In the presence of Myc-OsOTUB1.1, the titer of ubiquitinated Flag-OsSPL14 was clearly decreased in the presence of either K48R or K63O mutations, but it remained unaffected by the presence of either K48O or K63R mutations”.

B2: C-terminus of YFP-tagged OsOTUB1.1 (enzyme)
chain: MGGDYYHSCCGDPDPDLRAPEGPKLPYVGDKEPLSTLAAEFQSGSPILQEKIKLLGEQYDALRRTRGDGNCFYRSFMFSYLEHILETQDKAEVERILKKIEQCKKTLADLGYIEFTFEDFFSIFIDQLESVLQGHESSIGAEELLERTRDQMVSDYVVMFFRFVTSGEIQRRAEFFEPFISGLTNSTVVQFCKASVEPMGEESDHVHIIALSDALGVPIRVMYLDRSSCDAGNISVNHHDFSPEANSSDGAAAAEKPYITLLYRPGHYDILYPK
notes: BiFC construct expressed in rice protoplasts; also called cYFP-OsOTUB1; cYFP-OsOTUB1.1; not shown: C-terminal fragment of YFP from vector pSY-735-35S-cYFP-HA
Q: Does B2 bind [2]?
A: Result: no binding

Q: Does B2 bind [3]?
A: Result: binds

B3: OsOTUB1 (enzyme)
chain: MGGDYYHSCCGDPDPDLRAPEGPKLPYVGDKEPLSTLAAEFQSGSPILQEKIKLLGEQYDALRRTRGDGNCFYRSFMFSYLEHILETQDKAEVERILKKIEQCKKTLADLGYIEFTFEDFFSIFIDQLESVLQGHESSIGAEELLERTRDQMVSDYVVMFFRFVTSGEIQRRAEFFEPFISGLTNSTVVQFCKASVEPMGEESDHVHIIALSDALGVPIRVMYLDRSSCDAGNISVNHHDFSPEANSSDGAAAAEKPYITLLYRPGHYDILYPK
notes: Used for sentences that name OsOTUB1 in general or cover several assay formats; also called NPT1; DEP5
Q: What does the source list for B3?
A: binding result (OsSPL14): binds; binding result (OsUBC13): binds

B4: full length OsOTUB1.1 in pGBKT7 (enzyme)
chain: MGGDYYHSCCGDPDPDLRAPEGPKLPYVGDKEPLSTLAAEFQSGSPILQEKIKLLGEQYDALRRTRGDGNCFYRSFMFSYLEHILETQDKAEVERILKKIEQCKKTLADLGYIEFTFEDFFSIFIDQLESVLQGHESSIGAEELLERTRDQMVSDYVVMFFRFVTSGEIQRRAEFFEPFISGLTNSTVVQFCKASVEPMGEESDHVHIIALSDALGVPIRVMYLDRSSCDAGNISVNHHDFSPEANSSDGAAAAEKPYITLLYRPGHYDILYPK
notes: Yeast two-hybrid bait; not shown: fusion partner encoded by vector pGBKT7
Q: Does B4 bind [4]?
A: Result: binds

B5: recombinant OsOTUB1.1 of the tetra-ubiquitin cleavage assay (protein)
chain: MGGDYYHSCCGDPDPDLRAPEGPKLPYVGDKEPLSTLAAEFQSGSPILQEKIKLLGEQYDALRRTRGDGNCFYRSFMFSYLEHILETQDKAEVERILKKIEQCKKTLADLGYIEFTFEDFFSIFIDQLESVLQGHESSIGAEELLERTRDQMVSDYVVMFFRFVTSGEIQRRAEFFEPFISGLTNSTVVQFCKASVEPMGEESDHVHIIALSDALGVPIRVMYLDRSSCDAGNISVNHHDFSPEANSSDGAAAAEKPYITLLYRPGHYDILYPK
Q: Which “cleavage of linear Lys48-linked tetra-ubiquitin (western blot, anti-ubiquitin)” value [5] does the source give for B5 here?
A: The value was “it showed a strong cleavage activity when presented with Lys48-linked tetra-ubiquitin”.

Q: What about the “cleavage of linear Lys63-linked tetra-ubiquitin (western blot, anti-ubiquitin)” value [6] of the same molecule?
A: The value was “it also displayed a moderate level of activity when presented with the Lys63-linked forms”.

B6: MBP-WTG1 (protein)
chain: MGGDYYHSCCGDPDPDLRAPEGPKLPYVGDKEPLSTLAAEFQSGSPILQEKIKLLGEQYDALRRTRGDGNCFYRSFMFSYLEHILETQDKAEVERILKKIEQCKKTLADLGYIEFTFEDFFSIFIDQLESVLQGHESSIGAEELLERTRDQMVSDYVVMFFRFVTSGEIQRRAEFFEPFISGLTNSTVVQFCKASVEPMGEESDHVHIIALSDALGVPIRVMYLDRSSCDAGNISVNHHDFSPEANSSDGAAAAEKPYITLLYRPGHYDILYPK
Q: With B6 as the molecule, how does the “in vitro deubiquitination assay (cleavage of His-UBQ10, SDS-PAGE and anti-His blot)” value (His-UBQ10 [7]) read?
A: The value was “MBP-WTG1 was capable of cleaving His-UBQ10”.

B7: recombinant His-OsOTUB1 fusion protein (protein)
chain: MGGDYYHSCCGDPDPDLRAPEGPKLPYVGDKEPLSTLAAEFQSGSPILQEKIKLLGEQYDALRRTRGDGNCFYRSFMFSYLEHILETQDKAEVERILKKIEQCKKTLADLGYIEFTFEDFFSIFIDQLESVLQGHESSIGAEELLERTRDQMVSDYVVMFFRFVTSGEIQRRAEFFEPFISGLTNSTVVQFCKASVEPMGEESDHVHIIALSDALGVPIRVMYLDRSSCDAGNISVNHHDFSPEANSSDGAAAAEKPYITLLYRPGHYDILYPK
Q: With B7 as the molecule, how does the “degradation of GST-OsSPL14 in young panicle lysates (anti-GST western blot over time)” value [8] read?
A: Its value is “the degradation of GST-OsSPL14 was accelerated in lysates made from ZH11-npt1 panicles in the presence of His-OsOTUB1”.
